Results taken from patent publication US12281155 (INSTITUT PASTEUR, dated 2025).

Assays:
[1] = target: T1, recombinant SARS-CoV-2 Spike RBD domain, Wuhan (SARS-CoV-2); test: ELISA on coated RBD
T1 construct: also called RBD Wuhan

[2] = target: T1, recombinant SARS-CoV-2 Spike RBD …; test: competition ELISA, blocking of RBD binding to ACE2 ectodomain
[3] = target: T2, YU2 HIV-1 Env gp140 protein (HIV-1 YU2, UniProt P35961 32-670); test: polyreactivity ELISA (FIG. 1)
T2 construct: domain: gp140; also called gp140 (HIV-1 YU2); HIV gp140

Binder | Binding AUC [1] | Blocking % [2] | binding result [3]
SPK002M A3 antibody (antibody, human IgG1, kappa, V domains shown) VH: EVQLVESGGGLIQPGGSLRLSCAASTITVTSNYMSWVRQAPGKGLEWVSVIYPGGSTFYADSVKGRFTISADNSKNTLYLQMNSLRAEDTAVYYCARDLVVYGMDVWGQGTTVTVSS VL: EIVLTQSPGTLSLSPGERATLSCRASQSVSSSYLAWYQQKPGQAPRLLIYGASSRATGIPGRFSGSGSGTDFTLTISRLEPEDFAVYYCQQGVTFGGGTKVEIKR | 33 | 94% | no binding (tested: 4 µg/ml)
SPK002M A1 antibody (antibody, human IgG1, kappa, V domains shown) VH: EVQLVESGGGLIQPGGSLRLSCAASTITVTSNYMSWVRQAPGKGLEWVSVIYPGGSTFYADSVKGRFTISADNSKNTLYLQMNSLRAEDTAVYYCARDLVVYGMDVWGQGTTVTVSS VL: EIVLTQSPGTLSLSPGERATLSCRASQGFSSSYLAWYQQKPGQAPRLLIYGASSRATGIPGRFSGSGSGTDFTLTISRLEPEDFAVYYCQQGVTFGGGTKVEIKR | 33 | 92% | no binding (tested: 4 µg/ml)
SPK002M A2 antibody (antibody, human IgG1, kappa, V domains shown) VH: EVQLVESGGGLIQPGGSLRLSCAASTITVTSNYMSWVRQAPGKGLEWVSVIYPGGSTFYADSVKGRFTISADNSKNTLYLQMNSLRAEDTAVYYCARDLVVYGMDVWGQGTTVTVSS VL: EIVLTQSPGTLSLSPGERATLSCRASQGVSSSYLAWYQQKPGQAPRLLIYGASSRATGIPGRFSGSGSGTDFTLTISRLEPEDFAVYYCQQGVTFGGGTKVEIKR | 33 | 92% | no binding (tested: 4 µg/ml)
SPK002M A4 antibody (antibody, human IgG1, kappa, V domains shown) VH: EVQLVESGGGLIQPGGSLRLSCAASVITVTSNYMSWVRQAPGKGLEWVSVIYPGGSTFYADSVKGRFTISADNSKNTLYLQMNSLRAEDTAVYYCARDLVVYGMDVWGQGTTVTVSS VL: EIVLTQSPGTLSLSPGERATLSCRASQSVSSSYLAWYQQKPGQAPRLLIYGASSRATGIPGRFSGSGSGTDFTLTISRLEPEDFAVYYCQQGVTFGGGTKVEIKR | 34 | 88% | no binding (tested: 4 µg/ml)
SPK002M A5 antibody (antibody, human IgG1, kappa, V domains shown) VH: EVQLVESGGGLIQPGGSLRLSCAASVITVTSNYMSWVRQAPGKGLEWVSVIYPGGSTFYADSVKGRFTISADNSKNTLYLQMNSLRAEDTAVYYCARDLVVYGMDVWGQGTTVTVSS VL: EIVLTQSPGTLSLSPGERATLSCRASQSVSSSYLAWYQQKPGQAPRLLIYGASSRATGIPGRFSGSGSGTDFTLTISRLEPEDFAIYYCQQGVTFGGGTKVEIKR | 34 | 89% | no binding (tested: 4 µg/ml)
SPK002M A6 antibody (antibody, human IgG1, kappa, V domains shown) VH: EVQLVESGGGLIQPGGSLRLSCAASGITVTSNYMSWVRQAPGKGLEWVSVIYPGGSTFYADSVKGRFTISADNSKNTLYLQMNSLRAEDTAVYYCARDLVVYGMDVWGQGTTVTVSS VL: EIVLTQSPGTLSLSPGERATLSCRASQSVSSSYLAWYQQKPGQAPRLLIYGASSRATGIPGRFSGSGSGTDFTLTISRLEPEDFAIYYCQQGVTFGGGTKVEIKR |  |  | no binding (tested: 4 µg/ml)
SPK002M B1 antibody (antibody, human IgG1, kappa, V domains shown) VH: EVQLVESGGGLIQPGGSLRLSCAASIITVTSNYMSWVRQAPGKGLEWVSVIYPGGSTFYADSVKGRFTISYDNSKNTLYLQMNSLRAEDTAVYYCARDLVVYGMDVWGQGTTVTVSS VL: EIVLTQSPGTLSLSPGERATLSCRASQSVSDSYLAWYQQKPGQAPRLLIYGASSRATGIPGRFSGSGSGTDFTLTISRLEPEDFAIYYCQYGVTFGGGTKVEIKR | 31 | 87% | no binding (tested: 4 µg/ml)
SPK002M B2 antibody (antibody, human IgG1, kappa, V domains shown) VH: EVQLVESGGGLIQPGGSLRLSCAASIITVTSNYMSWVRQAPGKGLEWVSVIYPGGSTFYADSVKGRFTISYDNSKNTLYLQMNSLRAEDTAVYYCARDLVVYGMDVWGQGTTVTVSS VL: EIVLTQSPGTLSLSPGERATLSCRASQSVSSSYLAWYQQKPGQAPRLLIYGASSRATGIPGRFSGSGSGTDFTLTISRLEPEDFAIYYCQQGVTFGGGTKVEIKR | 31 | 90% | no binding (tested: 4 µg/ml)
SPK002M C1 antibody (antibody, human IgG1, kappa, V domains shown) VH: EVQLVESGGGLIQPGGSLRLSCAASIITVTSNYMSWVRQAPGKGLEWVSVAYPGGSTFYADSVKGRFTISTDNSKNTLYLQMNSLRAEDTAVYYCARDLVVYGMDVWGQGTTVTVSS VL: EIVLTQSPGTLSLSPGERATLSCRASQSVSDSYLAWYQQKPGQAPRLLIYGASSRATGIPGRFSGSGSGTDFTLTISRLEPEDFAVYYCQYGVTFGGGTKVEIKR | 32 | 94% | no binding (tested: 4 µg/ml)
SPK002M C2 antibody (antibody, human IgG1, kappa, V domains shown) VH: EVQLVESGGGLIQPGGSLRLSCAASIITVTSNYMSWVRQAPGKGLEWVSVAYPGGSTFYADSVKGRFTISTDNSKNTLYLQMNSLRAEDTAVYYCARDLVVYGMDVWGQGTTVTVSS VL: EIVLTQSPGTLSLSPGERATLSCRASQSVSSSYLAWYQQKPGQAPRLLIYGASSRATGIPGRFSGSGSGTDFTLTISRLEPEDFAVYYCQQGVTFGGGTKVEIKR | 32 | 88% | no binding (tested: 4 µg/ml)
SPK002M C3 antibody (antibody, human IgG1, kappa, V domains shown) VH: EVQLVESGGGLIQPGGSLRLSCAASIITVTSNYMSWVRQAPGKGLEWVSVIYPGGSTFYADSVKGRFTISTDNSKNTLYLQMNSLRAEDTAVYYCARDLVVYGMDVWGQGTTVTVSS VL: EIVLTQSPGTLSLSPGERATLSCRASQSVSSSYLAWYQQKPGQAPRLLIYGASSRATGIPGRFSGSGSGTDFTLTISRLEPEDFAVYYCQQGVTFGGGTKVEIKR | 34 | 88% | no binding (tested: 4 µg/ml)
